# Results: US20100047230A1 (HELLENIC PASTEUR INSTITUTE, published 2010)
# B1: Fab63 (Fab, V domains shown)
# VH: EVQLLEWGPGLVKPSGTLSLTCAVSGGSIRDSNWWGWVRQPPGKGLEWIGEIYHSGTTNYNPSLKSRVTISVDKSKNQFSLNLSSVTAADTAVYYCAREDCSYGSCYFDYWGQGTLVTVSS
# VL: ELTLTQSPSSLSASLGDRVTIRCRASQSISAALNWYQQKPGKAPKLLIHDVSTLQSGVPARFSGGGSETDFTLTISSLQPEDFATYYCQQSYRVPLTFGGGTRLEIK
# notes: Fully human soluble Fab made in E. coli from pComb3H; Heavy chain is an Fd of the gamma1 isotype (VH-CH1), light chain is kappa (VL of the K subgroup, with Ckappa); also called human Fab 63; clone 63
# Legend:
# Assay in all cases: ELISA on coated antigen
# [1] = molecular target: T1, alpha1-ECD of human AChR (human, UniProt P02708 21-230, limits assumed)
# T1 construct: extracellular domain; Irrelevant antigen control; also called α1-ECD; α1-AChR
# [2] = molecular target: T2, human serum albumin (human, UniProt P02768 25-609)
# T2 construct: Irrelevant antigen control, produced in P. pastoris; also called HSA
# [3] = molecular target: T3, bovine serum albumin (bovine, UniProt P02769 25-607)
# T3 construct: Irrelevant antigen control; also called BSA
# T3 sequence (P02769 25-607 limits assumed): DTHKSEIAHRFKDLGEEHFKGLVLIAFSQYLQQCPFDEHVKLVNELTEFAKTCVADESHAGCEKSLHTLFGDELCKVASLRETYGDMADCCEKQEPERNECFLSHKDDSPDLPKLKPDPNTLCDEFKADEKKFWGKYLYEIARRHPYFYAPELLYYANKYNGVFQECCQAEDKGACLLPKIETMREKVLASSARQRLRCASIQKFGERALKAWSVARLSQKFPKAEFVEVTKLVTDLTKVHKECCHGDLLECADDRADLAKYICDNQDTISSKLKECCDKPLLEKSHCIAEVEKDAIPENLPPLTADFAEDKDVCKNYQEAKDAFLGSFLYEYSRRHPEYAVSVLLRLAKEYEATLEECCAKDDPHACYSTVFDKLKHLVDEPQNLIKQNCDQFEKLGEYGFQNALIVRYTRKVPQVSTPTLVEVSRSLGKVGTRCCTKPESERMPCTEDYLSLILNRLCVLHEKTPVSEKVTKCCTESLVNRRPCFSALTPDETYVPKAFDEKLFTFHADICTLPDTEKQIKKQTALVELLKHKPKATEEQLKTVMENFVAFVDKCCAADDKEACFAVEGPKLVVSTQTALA
# T1 sequence (P02708 21-230 limits assumed): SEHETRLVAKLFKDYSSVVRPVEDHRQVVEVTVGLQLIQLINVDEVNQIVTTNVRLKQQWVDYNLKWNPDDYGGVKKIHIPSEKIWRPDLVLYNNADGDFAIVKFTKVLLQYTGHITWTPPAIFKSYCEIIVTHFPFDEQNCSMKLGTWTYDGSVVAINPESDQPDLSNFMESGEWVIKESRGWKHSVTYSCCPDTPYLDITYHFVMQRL
binder,measurement,setting,value
B1,binding result,[1],no binding (tested: antigen coated at 10 µg/ml)
same,binding result,[2],no binding (tested: antigen coated at 10 µg/ml)
same,binding result,[3],no binding (tested: antigen coated at 10 µg/ml)
